Values quoted from earlier work, collected in paper PMC4485553.

Target: human IgG1, wild type (UniProt P01857)
Experiment: not stated in this review
Settings: pH 6

Substance: FcRn (neonatal Fc receptor), mouse
- KD: 0.032 µM
